The results in this text go back to patent US20020031818A1, “Modification of Mdm2 activity” (priority 2000, published 2002).

The target of one test is T1, Ubc9 binding to Mdm2 (Homo sapiens, UniProt Q00987).
T1 construct: made in house; host or cells: GST-Mdm2: bacteria; Ubc9: in vitro translation
The test can be described thus: In vitro binding of Ubc9 to GST-Mdm2. The conditions noted are these: in vitro translated p19ARF and Ubc9, GST-Mdm2 1 μg. The procedure:
FIGS. 17A and 17B. A. p19^ARF decreases Ubc9 binding to Mdm2. Bacterially expressed and purified GST-Mdm2 (1 μg) was incubated with ^35S-labeled in vitro translated p19^ARF and Ubc9 at the indicated ratios. After 30 min of incubation GSH beads bound-GST-Mdm2 were washed and separated on a 12% SDS-PAGE. Gel was dried and subjected to autoradiograph, depicting relative amounts of Ubc9 and p19^ARF bound to Mdm2. B. Bacterially expressed and purified GST-Mdm2 (1 μg) was phosphorylated by purified form of active p38 kinase as indicated. Phosphorylated or un-phosphorylated Mdm2 was incubated for 30 min with in vitro translated UbcH5b and Ubc9 (25 μl). Beads were washed and separated on a 12% SDS-PAGE. Gel was dried and exposed to X-ray film. Position of Ubc9 and UbcH5b is shown.
A prerequisite for Mdm2 sumoylation is the association of Ubc9, the SUMO conjugating enzyme, with Mdm2, which enables subsequent conjugation of SUMO-1 to Mdm2. Inhibition of Ubc9's association with Mdm2 attenuates Mdm2 sumoylation. Given the effect of p19^ARF on Mdm2 sumoylation, we proceeded to determine whether p19^ARF may alter Ubc9 binding to Mdm2. To this end we performed an in vitro binding assay, using in vitro translated p19^ARF and Ubc-9, as indicated. […] We next assessed possible changes in Ubc9 binding to Mdm2 upon its phosphorylation by p38.

The target of the next test is Mdm2 (Homo sapiens, UniProt Q00987). The test can be described thus: Mdm2 sumoylation in EJ cells. The format is cell-based, mouse. Also noted: expressed in transfected cells; host or cells: EJ mouse fibroblasts (p19ARF null). The conditions noted are these: EJ cells (lack p19ARF), Flag-Mdm2 and p19ARF constructs 2 μg. The procedure:
FIG. 13A-13E. A. Bacterially expressed and purified Mdm2 (1 μg) was incubated with ^32P-labeled Sumo-1, purified Aos1/Uba2 and Ubc9 (0.5 μg) for 60 min at 37° C. in conjugation buffer. For indicated time-periods in vitro translated wt or mutant p19^ARF ([…]) was added to the sumoylation reactions. Upper panel depicts the amount of Sumoylated Mdm2, lower panel reveal the level of Mdm2 and Sumo-Mdm2 in Coomassie blue gel. B. Bacterially expressed and purified Mdm2 (1 μg) was incubated with in vitro-translated ^35S-Sumo, purified Aos1/Uba2 and Ubc9 (0.5 μg) for 60 min at 37° C. in conjugation buffer in the presence of the increasing amounts of bacculovirus-expressed p19^ARF (0, 0.1, 0.5, 1 μg; lanes 1-4 respectively). Bead-bound complexes were washed before being denatured in 3× Sample Buffer. Proteins were separated on 8% SDS-PAGE. Gel was stained with Coomassie blue to verify equal Mdm2 input (lower panel), dried and exposed to X-ray film, which depicts SUMO-1 conjugation to Mdm2 in the presence of the indicated p19 forms (upper panel). […] (Left) Immunoprecipitated Mdm2 was detected using monoclonal Mdm2 antibodies (2A10, left). […] SUMO-conjugation to Mdm2 was detected using monoclonal antibodies to SUMO-1 (top). […]

T1 sequence (Q00987 whole entry): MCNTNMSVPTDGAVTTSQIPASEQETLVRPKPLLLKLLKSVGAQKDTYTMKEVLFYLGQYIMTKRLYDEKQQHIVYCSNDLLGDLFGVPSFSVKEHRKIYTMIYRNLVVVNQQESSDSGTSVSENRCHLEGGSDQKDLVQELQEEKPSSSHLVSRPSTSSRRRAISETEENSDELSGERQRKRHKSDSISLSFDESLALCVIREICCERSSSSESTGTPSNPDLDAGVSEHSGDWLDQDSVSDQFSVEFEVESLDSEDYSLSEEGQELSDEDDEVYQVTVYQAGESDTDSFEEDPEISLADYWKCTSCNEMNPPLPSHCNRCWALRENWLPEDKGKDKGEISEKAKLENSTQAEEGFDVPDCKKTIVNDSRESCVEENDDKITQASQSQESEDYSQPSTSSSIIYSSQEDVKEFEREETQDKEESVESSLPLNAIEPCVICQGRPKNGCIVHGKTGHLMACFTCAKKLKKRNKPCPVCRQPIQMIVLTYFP
Sequence of Mdm2 (Q00987 whole entry): as above

B1: p19^ARF: Mdm2-regulating protein; in vitro translated, bacculovirus-expressed or transfected (protein)
chain: MGRRFLVTVRIQRAGRPLQERVFLVKFVRSRRPRTASCALAFVNMLLRLERILRRGPHRNPGPGDDDGQRSRSSSSAQLRCRFELRGPHYLLPPGARRSAGRLPGHAGGAARVRGSAGCARCLGSPAARLGPRAGTSRHRAIFAFRWVLFVFRWVVFVYRWERRPDRRA
Turning to B1, in the test with Ubc9 binding to Mdm2, the “Ubc9 binding to Mdm2 in presence of increasing amounts of p19ARF” value is “dose dependent decrease in Ubc9 binding to Mdm2”. Further, the “Mdm2 sumoylation in EJ cells upon co-expression” value in the test with Mdm2 is on record as “inhibition of Mdm2 sumoylation”.
